Assay results from patent US20260015426A1 (23ANDME, published 2026).
Residue numbers refer to the chain shown, from its start. Names and notes keep the numbering of the source.

T1: hu-M-IL1RAP construct, positions S21-T367 (extracellular domain of the membrane form of human IL1RAP) (human, UniProt Q9NPH3 21-367)
T1 construct: Biotinylated when captured on the Biacore chip
T1 sequence: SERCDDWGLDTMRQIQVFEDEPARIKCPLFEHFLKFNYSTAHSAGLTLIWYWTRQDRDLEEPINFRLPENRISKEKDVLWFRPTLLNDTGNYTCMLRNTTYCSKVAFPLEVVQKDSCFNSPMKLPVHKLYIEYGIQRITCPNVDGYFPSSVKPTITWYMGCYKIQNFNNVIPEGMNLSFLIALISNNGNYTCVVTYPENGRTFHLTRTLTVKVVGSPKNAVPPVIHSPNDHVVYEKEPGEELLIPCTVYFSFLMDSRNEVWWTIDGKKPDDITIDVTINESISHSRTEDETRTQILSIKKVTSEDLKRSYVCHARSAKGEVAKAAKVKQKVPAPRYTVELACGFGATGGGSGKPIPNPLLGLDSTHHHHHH

T2: human IL1RAP (hu-IL1RAP) on human cells (human, UniProt Q9NPH3 21-570)
T2 sequence: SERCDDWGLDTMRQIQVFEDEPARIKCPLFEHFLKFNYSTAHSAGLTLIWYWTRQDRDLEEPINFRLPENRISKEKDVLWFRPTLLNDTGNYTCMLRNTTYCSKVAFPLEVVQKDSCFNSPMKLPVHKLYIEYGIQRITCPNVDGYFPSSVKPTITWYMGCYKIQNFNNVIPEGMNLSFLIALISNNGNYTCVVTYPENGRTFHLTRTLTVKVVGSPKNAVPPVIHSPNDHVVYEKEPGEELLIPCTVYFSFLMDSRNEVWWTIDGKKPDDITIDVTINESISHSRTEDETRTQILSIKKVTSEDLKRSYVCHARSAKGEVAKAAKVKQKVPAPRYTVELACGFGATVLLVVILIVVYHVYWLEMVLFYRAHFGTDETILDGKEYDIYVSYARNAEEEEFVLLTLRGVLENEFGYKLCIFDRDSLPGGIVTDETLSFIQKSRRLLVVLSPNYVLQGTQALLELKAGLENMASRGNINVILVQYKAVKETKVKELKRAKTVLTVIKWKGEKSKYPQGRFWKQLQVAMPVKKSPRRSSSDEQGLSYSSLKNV

B1: Parent Fab (Fab of h11C5_C59Y/A43S) (Fab, V domains shown)
VH: EVQLVESGGGLVQPGGSLRLSCAASGFTFSNYAMSWVRQAPGKGLEWVATVTEGGDYNYYLDDVKGRFTISRDNAKNSLYLQMNSLRAEDTAVYYCARDRWPYFFDYWGQGTLVTVSS
VL: DIQMTQSPSSLSASVGDRVTITCRASENIYSNLAWYQQKPGKSPKLLVYGAKNLADGVPSRFSGSGSGTDYTLTISSLQPEDFATYYCQHFWTTPRTFGGGTKVEIK
notes: Fab with 8xHis tag; also called parental Fab of h11C5_C59Y/A43S
B2: H5 Fab (VH V51S/G54H) (Fab, V domains shown)
VH: B1 VH with V51S, G55H
VL: B1 VL
notes: Fab with 8xHis tag
B3: K5 Fab (VL Y30W/W92L) (Fab, V domains shown)
VH: B1 VH
VL: B1 VL with Y30W, W92L
notes: Fab with 8xHis tag
B4: K6 Fab (VL Y30W/W92F) (Fab, V domains shown)
VH: B1 VH
VL: B1 VL with Y30W, W92F
notes: Fab with 8xHis tag
B5: K11 Fab (VL A51R/K52G) (Fab, V domains shown)
VH: B1 VH
VL: B1 VL with A51R, K52G
notes: Fab with 8xHis tag
B6: K17 Fab (VL A51Y/W92K) (Fab, V domains shown)
VH: B1 VH
VL: B1 VL with A51Y, W92K
notes: Fab with 8xHis tag
B7: K18 Fab (VL A51Y/L33G) (Fab, V domains shown)
VH: B1 VH
VL: B1 VL with L33G, A51Y
notes: Fab with 8xHis tag
B8: H7 Fab (VH F29E/N57G/R96A) (Fab, V domains shown)
VH: B1 VH with F29E, N58G, R100A
VL: B1 VL
notes: Fab with 8xHis tag
B9: H8 Fab (VH F29S/E52aV/R96A) (Fab, V domains shown)
VH: B1 VH with F29S, E53V, R100A
VL: B1 VL
notes: Fab with 8xHis tag
B10: H9 Fab (VH G54V/R96A) (Fab, V domains shown)
VH: B1 VH with G55V, R100A
VL: B1 VL
notes: Fab with 8xHis tag
B11: H10 Fab (VH F29S/D55G/R96S) (Fab, V domains shown)
VH: B1 VH with F29S, D56G, R100S
VL: B1 VL
notes: Fab with 8xHis tag
B12: H11 Fab (VH W97F) (Fab, V domains shown)
VH: B1 VH with W101F
VL: B1 VL
notes: Fab with 8xHis tag
B13: H12 Fab (VH M34V) (Fab, V domains shown)
VH: B1 VH with M34V
VL: B1 VL
notes: Fab with 8xHis tag
B14: K10/H2 Fab (VL-A51Y, VH-R96D) (Fab, V domains shown)
VH: B1 VH with R100D
VL: B1 VL with A51Y
notes: Fab with 8xHis tag
B15: K10/H3 Fab (VL-A51Y, VH-V51S) (Fab, V domains shown)
VH: B1 VH with V51S
VL: B1 VL with A51Y
notes: Fab with 8xHis tag
B16: K13/H12 Fab (VL-A51Y/W92I, VH-M34V) (Fab, V domains shown)
VH: B1 VH with M34V
VL: B1 VL with A51Y, W92I
notes: Fab with 8xHis tag
B17: Parent IgG Ab (full-length IgG of h11C5_C59Y/A43S) (antibody, V domains shown)
VH: B1 VH
VL: B1 VL
B18: K10 IgG (VL-A51Y) (antibody, V domains shown)
VH: B1 VH
VL: B1 VL with A51Y
B19: K13 IgG (VL-A51Y/W92I) (antibody, V domains shown)
VH: B1 VH
VL: B1 VL with A51Y, W92I
B20: K17 IgG (VL-A51Y/W92K) (antibody, V domains shown)
VH: B1 VH
VL: B1 VL with A51Y, W92K
B21: K10/H2 IgG (VL-A51Y, VH-R96D) (antibody, V domains shown)
VH: B1 VH with R100D
VL: B1 VL with A51Y
B22: K10/H3 IgG (VL-A51Y, VH-V51S) (antibody, V domains shown)
VH: B1 VH with V51S
VL: B1 VL with A51Y

These binders were tested against T1, hu-M-IL1RAP construct, positions … (assay: SPR, Fab analyte, 25 C).
Description: (§1) Surface plasmon resonance (SPR) analysis was used to determine binding affinity for hu-M-IL1RAP of the purified Fabs containing the selected single, double, and triple mutations in either the VL or VH regions using a BIACORE™ 8K instrument. […] For kinetics measurements, 5 nM biotinylated hu-M-IL1RAP was captured at 10 μL/min to achieve ˜50 response units in the second flow cell (FC2). FC1 was kept as a reference. […] The sensorgrams were recorded and subjected to reference and buffer subtraction before data analysis with the BIACORE® 8K Evaluation Software (version 1.1.1.7442). Association rates (kₒₙ) and dissociation rates (koff) were calculated using a simple one-to-one Langmuir binding model. The equilibrium dissociation constant (KD) was calculated as the ratio of koff/kₒₙ.

| Binder | apparent Kd (pooled screen) [nM] | apparent koff (pooled screen) [s⁻¹] | apparent kon (pooled screen) [M⁻¹ s⁻¹] | Kd [nM] | koff [s⁻¹] | kon [M⁻¹ s⁻¹] |
| --- | --- | --- | --- | --- | --- | --- |
| B1 | 0.337 | 0.000468 | 1.39e+06 |  |  |  |
| B2 |  |  |  | 0.05 | 0.000235 | 4.71e+06 |
| B3 |  |  |  | 0.0524 | 0.000268 | 5.11e+06 |
| B4 |  |  |  | 0.0147 | 6.25e-05 | 4.25e+06 |
| B5 |  |  |  | 0.0212 | 0.000102 | 4.83e+06 |
| B6 |  |  |  | 0.00637 | 3.58e-05 | 5.63e+06 |
| B7 |  |  |  | 0.0189 | 0.000123 | 6.52e+06 |

These binders were tested against T1, hu-M-IL1RAP construct, positions … (assay: SPR, Fab analyte, 37 C).
Description: as §1

| Binder | apparent Kd (pooled screen) [nM] | apparent koff (pooled screen) [s⁻¹] | apparent kon (pooled screen) [M⁻¹ s⁻¹] | Kd [nM] | koff [s⁻¹] | kon [M⁻¹ s⁻¹] |
| --- | --- | --- | --- | --- | --- | --- |
| B1 | 0.268 | 0.00163 | 6.08e+06 |  |  |  |
| B8 |  |  |  | 0.0998 | 0.000511 | 5.13e+06 |
| B9 |  |  |  | 0.17 | 0.000899 | 5.27e+06 |
| B10 |  |  |  | 0.0811 | 0.000401 | 4.94e+06 |
| B11 |  |  |  | 0.131 | 0.000702 | 5.34e+06 |
| B12 |  |  |  | 0.46 | 0.00441 | 9.58e+06 |
| B13 |  |  |  | 0.305 | 0.00174 | 5.7e+06 |
| B6 |  |  |  | 0.0441 | 0.000159 | 3.6e+06 |

Molecular target: T1, hu-M-IL1RAP construct, positions …
Assay: SPR, Fab analyte, 37 C
Remark: another data set of the same source
Description: as §1

| Binder | Kd [nM] | koff [s⁻¹] | kon [M⁻¹ s⁻¹] |
| --- | --- | --- | --- |
| B14 | 0.0201 | 0.000111 | 5.54e+06 |
| B15 | 0.0242 | 0.000123 | 5.06e+06 |
| B16 | 0.0363 | 0.000178 | 4.9e+06 |

What follows are binders tested against T2, human IL1RAP (hu-IL1RAP) on human cells (assay: cell-based or functional assay).

| Binder | HEK-Blue, IL-1β, % inhibition at 100 nM (Fab) [%] | HEK-Blue, IL-1β, IC50 (Fab) [nM] | HEK-Blue, IL-33, % inhibition at 100 nM (Fab) [%] | HEK-Blue, IL-33, IC50 (Fab) [nM] | HEK-Blue, IL-36α, % inhibition at 100 nM (Fab) [%] | HEK-Blue, IL-36α, IC50 (Fab) [nM] |
| --- | --- | --- | --- | --- | --- | --- |
| B1 | 96 | 7.45 | 77 | 26.4 | 96 | 5.09 |
| B14 | 100 | 0.552 | 99 | 2.17 | 100 | 0.481 |
| B15 | 99 | 0.642 | 98 | 2.43 | 100 | 0.582 |
| B6 | 100 | 1.59 | 96 | 5.38 | 100 | 1.27 |

Molecular target: T2, human IL1RAP (hu-IL1RAP) on human cells
Assay: cell-based or functional assay
Remark: another data set of the same source

| Binder | HEK-Blue, IL-1β, % inhibition at 100 nM (IgG) [%] | HEK-Blue, IL-1β, IC50 (IgG) [nM] | HEK-Blue, IL-33, % inhibition at 100 nM (IgG) [%] | HEK-Blue, IL-33, IC50 (IgG) [nM] | HEK-Blue, IL-36α, % inhibition at 100 nM (IgG) [%] | HEK-Blue, IL-36α, IC50 (IgG) [nM] |
| --- | --- | --- | --- | --- | --- | --- |
| B17 | 99 | 0.363 | 99 | 2.04 | 89 | 0.34 |
| B18 | 100 | 0.23 | 100 | 1.37 | 100 | 0.247 |
| B19 | 100 | 0.332 | 100 | 1.77 | 100 | 0.303 |
| B20 | 100 | 0.468 | 99 | 2.74 | 100 | 0.495 |
| B21 | 100 | 0.285 | 100 | 1.06 | 100 | 0.34 |
| B22 | 100 | 0.177 | 99 | 0.354 | 100 | 0.28 |
